Test results taken from US20210309722A1 (DUKE UNIVERSITY, published 2021).

Experiments:
GLP-1 receptor = test: cell-based or functional assay
[1] = target: FGF21 receptor complex (murine β-Klotho and FGF receptor 1) (murine, UniProt Q99N32 1-1043; P16092 22-822); test: cell-based or functional assay
Sequence of FGF21 receptor complex (murine β-Klotho and FGF receptor 1) (Q99N32 whole entry, chain 1 of 2): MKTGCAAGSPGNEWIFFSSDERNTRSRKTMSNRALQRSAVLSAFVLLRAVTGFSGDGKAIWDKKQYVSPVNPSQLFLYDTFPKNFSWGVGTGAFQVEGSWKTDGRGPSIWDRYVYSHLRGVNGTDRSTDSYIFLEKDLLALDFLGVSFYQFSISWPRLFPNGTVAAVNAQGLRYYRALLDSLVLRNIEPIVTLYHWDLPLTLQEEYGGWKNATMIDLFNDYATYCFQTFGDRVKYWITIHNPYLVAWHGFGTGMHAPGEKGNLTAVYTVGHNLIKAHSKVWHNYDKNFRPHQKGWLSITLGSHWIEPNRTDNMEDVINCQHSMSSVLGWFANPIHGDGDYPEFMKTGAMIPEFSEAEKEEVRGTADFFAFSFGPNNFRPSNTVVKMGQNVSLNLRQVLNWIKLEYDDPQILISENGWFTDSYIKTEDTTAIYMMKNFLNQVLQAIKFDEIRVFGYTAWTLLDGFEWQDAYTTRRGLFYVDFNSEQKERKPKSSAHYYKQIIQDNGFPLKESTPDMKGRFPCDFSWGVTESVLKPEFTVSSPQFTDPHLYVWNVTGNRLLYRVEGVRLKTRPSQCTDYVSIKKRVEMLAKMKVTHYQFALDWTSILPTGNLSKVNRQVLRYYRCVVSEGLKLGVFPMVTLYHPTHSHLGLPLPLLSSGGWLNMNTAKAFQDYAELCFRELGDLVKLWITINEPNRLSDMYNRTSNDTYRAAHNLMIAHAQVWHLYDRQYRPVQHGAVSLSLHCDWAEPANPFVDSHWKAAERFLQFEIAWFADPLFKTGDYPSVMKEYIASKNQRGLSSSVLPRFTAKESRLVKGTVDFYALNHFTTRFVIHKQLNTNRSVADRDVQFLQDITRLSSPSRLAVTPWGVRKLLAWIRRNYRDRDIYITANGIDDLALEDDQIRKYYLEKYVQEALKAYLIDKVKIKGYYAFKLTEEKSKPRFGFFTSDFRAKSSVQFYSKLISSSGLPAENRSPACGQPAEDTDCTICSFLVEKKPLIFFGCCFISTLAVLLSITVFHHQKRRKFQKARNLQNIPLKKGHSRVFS
Sequence of FGF21 receptor complex (murine β-Klotho and FGF receptor 1) (P16092 22-822, chain 2 of 2): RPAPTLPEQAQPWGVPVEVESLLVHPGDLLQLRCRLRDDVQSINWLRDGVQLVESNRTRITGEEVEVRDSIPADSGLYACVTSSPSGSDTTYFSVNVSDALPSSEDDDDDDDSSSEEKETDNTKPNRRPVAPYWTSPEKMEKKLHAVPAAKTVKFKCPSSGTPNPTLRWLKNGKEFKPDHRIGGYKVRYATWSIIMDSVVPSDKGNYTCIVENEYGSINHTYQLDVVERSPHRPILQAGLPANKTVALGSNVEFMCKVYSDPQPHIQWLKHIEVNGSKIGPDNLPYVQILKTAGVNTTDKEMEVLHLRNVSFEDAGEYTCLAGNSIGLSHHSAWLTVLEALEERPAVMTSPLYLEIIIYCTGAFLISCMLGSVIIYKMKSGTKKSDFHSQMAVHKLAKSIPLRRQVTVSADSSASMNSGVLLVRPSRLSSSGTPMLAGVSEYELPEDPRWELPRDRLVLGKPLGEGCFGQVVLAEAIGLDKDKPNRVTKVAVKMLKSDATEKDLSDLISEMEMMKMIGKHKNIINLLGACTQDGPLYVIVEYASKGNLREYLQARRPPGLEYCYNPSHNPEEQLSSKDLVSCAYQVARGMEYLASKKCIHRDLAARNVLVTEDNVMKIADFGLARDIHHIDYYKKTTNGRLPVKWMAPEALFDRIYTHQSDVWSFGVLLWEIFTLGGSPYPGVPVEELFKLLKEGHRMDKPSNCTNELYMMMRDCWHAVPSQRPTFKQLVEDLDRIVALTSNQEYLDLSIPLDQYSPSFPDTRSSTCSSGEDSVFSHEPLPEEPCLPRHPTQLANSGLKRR

B1: GLP1-ELP20%Ala,120-FGF21 (no AA leader) (other)
chain: HGEGTFTSDVSSYLEEQAAKEFIAWLVKGAGVGVPGVGVPGAGVPGVGVPGVGVPGVGVPGVGVPGAGVPGVGVPGVGVPGVGVPGVGVPGAGVPGVGVPGVGVPGVGVPGVGVPGAGVPGVGVPGVGVPGVGVPGVGVPGAGVPGVGVPGVGVPGVGVPGVGVPGAGVPGVGVPGVGVPGVGVPGVGVPGAGVPGVGVPGVGVPGVGVPGVGVPGAGVPGVGVPGVGVPGVGVPGVGVPGAGVPGVGVPGVGVPGVGVPGVGVPGAGVPGVGVPGVGVPGVGVPGVGVPGAGVPGVGVPGVGVPGVGVPGVGVPGAGVPGVGVPGVGVPGVGVPGVGVPGAGVPGVGVPGVGVPGVGVPGVGVPGAGVPGVGVPGVGVPGVGVPGVGVPGAGVPGVGVPGVGVPGVGVPGVGVPGAGVPGVGVPGVGVPGVGVPGVGVPGAGVPGVGVPGVGVPGVGVPGVGVPGAGVPGVGVPGVGVPGVGVPGVGVPGAGVPGVGVPGVGVPGVGVPGVGVPGAGVPGVGVPGVGVPGVGVPGVGVPGAGVPGVGVPGVGVPGVGVPGVGVPGAGVPGVGVPGVGVPGVGVPGVGVPGAGVPGVGVPGVGVPGVGVPGVGVPGAGVPGVGVPGVGVPGAYPIPDSSPLLQFGGQVRQRYLYTDDDQDTEAHLEIREDGTVVGAAHRSPESLLELKALKPGVIQILGVKASRFLCQQPDGALYGSPHFDPEACSFRERLLEDGYNVYQSEAHGLPLRLPQKDSPNQDATSWGPVRFLPMPGLLHEPQDQAGFLPPEPPDVGSSDPLSMVEGSQGRSPSYASG
GLP-1 receptor
  GLP-1R EC50, cAMP production (cAMP-inducible luciferase reporter) in HEK293 cells expressing GLP-1R: 23.9 pM
  fold increase of EC50 against native GLP1, cAMP production assay: ~10 fold

B2: GLP1-ELP20%Ala,120 (other)
chain: HGEGTFTSDVSSYLEEQAAKEFIAWLVKGAGVGVPGVGVPGAGVPGVGVPGVGVPGVGVPGVGVPGAGVPGVGVPGVGVPGVGVPGVGVPGAGVPGVGVPGVGVPGVGVPGVGVPGAGVPGVGVPGVGVPGVGVPGVGVPGAGVPGVGVPGVGVPGVGVPGVGVPGAGVPGVGVPGVGVPGVGVPGVGVPGAGVPGVGVPGVGVPGVGVPGVGVPGAGVPGVGVPGVGVPGVGVPGVGVPGAGVPGVGVPGVGVPGVGVPGVGVPGAGVPGVGVPGVGVPGVGVPGVGVPGAGVPGVGVPGVGVPGVGVPGVGVPGAGVPGVGVPGVGVPGVGVPGVGVPGAGVPGVGVPGVGVPGVGVPGVGVPGAGVPGVGVPGVGVPGVGVPGVGVPGAGVPGVGVPGVGVPGVGVPGVGVPGAGVPGVGVPGVGVPGVGVPGVGVPGAGVPGVGVPGVGVPGVGVPGVGVPGAGVPGVGVPGVGVPGVGVPGVGVPGAGVPGVGVPGVGVPGVGVPGVGVPGAGVPGVGVPGVGVPGVGVPGVGVPGAGVPGVGVPGVGVPGVGVPGVGVPGAGVPGVGVPGVGVPGVGVPGVGVPGAGVPGVGVPGVGVPGVGVPGVGVPGAGVPGVGVPGVGVPG
GLP-1 receptor
  GLP-1R EC50, cAMP production (cAMP-inducible luciferase reporter) in HEK293 cells expressing GLP-1R: 29.5 pM
  fold increase of EC50 against native GLP1, cAMP production assay: ~10 fold
  fold increase of EC50 against native GLP-1, cAMP production assay: 10 fold
  fold increase of GLP-1R EC50 against native GLP-1, cAMP production assay: ~10 fold

B3: GLP1-ELP20%Ala,120-FGF21 (other)
chain: AAHGEGTFTSDVSSYLEEQAAKEFIAWLVKGAGVGVPGVGVPGAGVPGVGVPGVGVPGVGVPGVGVPGAGVPGVGVPGVGVPGVGVPGVGVPGAGVPGVGVPGVGVPGVGVPGVGVPGAGVPGVGVPGVGVPGVGVPGVGVPGAGVPGVGVPGVGVPGVGVPGVGVPGAGVPGVGVPGVGVPGVGVPGVGVPGAGVPGVGVPGVGVPGVGVPGVGVPGAGVPGVGVPGVGVPGVGVPGVGVPGAGVPGVGVPGVGVPGVGVPGVGVPGAGVPGVGVPGVGVPGVGVPGVGVPGAGVPGVGVPGVGVPGVGVPGVGVPGAGVPGVGVPGVGVPGVGVPGVGVPGAGVPGVGVPGVGVPGVGVPGVGVPGAGVPGVGVPGVGVPGVGVPGVGVPGAGVPGVGVPGVGVPGVGVPGVGVPGAGVPGVGVPGVGVPGVGVPGVGVPGAGVPGVGVPGVGVPGVGVPGVGVPGAGVPGVGVPGVGVPGVGVPGVGVPGAGVPGVGVPGVGVPGVGVPGVGVPGAGVPGVGVPGVGVPGVGVPGVGVPGAGVPGVGVPGVGVPGVGVPGVGVPGAGVPGVGVPGVGVPGVGVPGVGVPGAGVPGVGVPGVGVPGVGVPGVGVPGAGVPGVGVPGVGVPGAYPIPDSSPLLQFGGQVRQRYLYTDDDQDTEAHLEIREDGTVVGAAHRSPESLLELKALKPGVIQILGVKASRFLCQQPDGALYGSPHFDPEACSFRERLLEDGYNVYQSEAHGLPLRLPQKDSPNQDATSWGPVRFLPMPGLLHEPQDQAGFLPPEPPDVGSSDPLSMVEGSQGRSPSYASG
[1]
  FGF21 receptor EC50, ERK1/2 phosphorylation (phospho-ERK1/2 normalized to total ERK1/2) in HEK293 cells expressing FGFR1 and β-Klotho: 43200 pM

B4: GLP1-ELP-FGF21 (after removal of the expression-enhancing sequence) (other)
chain: MSKGPGENLYFQGAHGEGTFTSDVSSYLEEQAAKEFIAWLVKGAGVGVPGVGVPGAGVPGVGVPGVGVPGVGVPGVGVPGAGVPGVGVPGVGVPGVGVPGVGVPGAGVPGVGVPGVGVPGVGVPGVGVPGAGVPGVGVPGVGVPGVGVPGVGVPGAGVPGVGVPGVGVPGVGVPGVGVPGAGVPGVGVPGVGVPGVGVPGVGVPGAGVPGVGVPGVGVPGVGVPGVGVPGAGVPGVGVPGVGVPGVGVPGVGVPGAGVPGVGVPGVGVPGVGVPGVGVPGAGVPGVGVPGVGVPGVGVPGVGVPGAGVPGVGVPGVGVPGVGVPGVGVPGAGVPGVGVPGVGVPGVGVPGVGVPGAGVPGVGVPGVGVPGVGVPGVGVPGAGVPGVGVPGVGVPGVGVPGVGVPGAGVPGVGVPGVGVPGVGVPGVGVPGAGVPGVGVPGVGVPGVGVPGVGVPGAGVPGVGVPGVGVPGVGVPGVGVPGAGVPGVGVPGVGVPGVGVPGVGVPGAGVPGVGVPGVGVPGVGVPGVGVPGAGVPGVGVPGVGVPGVGVPGVGVPGAGVPGVGVPGVGVPGVGVPGVGVPGAGVPGVGVPGVGVPGVGVPGVGVPGAGVPGVGVPGVGVPGVGVPGVGVPGAGVPGVGVPGVGVPGAYPIPDSSPLLQFGGQVRQRYLYTDDDQDTEAHLEIREDGTVVGAAHRSPESLLELKALKPGVIQILGVKASRFLCQQPDGALYGSPHFDPEACSFRERLLEDGYNVYQSEAHGLPLRLPQKDSPNQDATSWGPVRFLPMPGLLHEPQDQAGFLPPEPPDVGSSDPLSMVEGSQGRSPSYASG
GLP-1 receptor
  EC50, cAMP production (cAMP-inducible luciferase reporter) in HEK293 cells expressing GLP1R: 212 pM

B5: ELP20%Ala,120-FGF21 (other)
chain: GVGVPGVGVPGAGVPGVGVPGVGVPGVGVPGVGVPGAGVPGVGVPGVGVPGVGVPGVGVPGAGVPGVGVPGVGVPGVGVPGVGVPGAGVPGVGVPGVGVPGVGVPGVGVPGAGVPGVGVPGVGVPGVGVPGVGVPGAGVPGVGVPGVGVPGVGVPGVGVPGAGVPGVGVPGVGVPGVGVPGVGVPGAGVPGVGVPGVGVPGVGVPGVGVPGAGVPGVGVPGVGVPGVGVPGVGVPGAGVPGVGVPGVGVPGVGVPGVGVPGAGVPGVGVPGVGVPGVGVPGVGVPGAGVPGVGVPGVGVPGVGVPGVGVPGAGVPGVGVPGVGVPGVGVPGVGVPGAGVPGVGVPGVGVPGVGVPGVGVPGAGVPGVGVPGVGVPGVGVPGVGVPGAGVPGVGVPGVGVPGVGVPGVGVPGAGVPGVGVPGVGVPGVGVPGVGVPGAGVPGVGVPGVGVPGVGVPGVGVPGAGVPGVGVPGVGVPGVGVPGVGVPGAGVPGVGVPGVGVPGVGVPGVGVPGAGVPGVGVPGVGVPGVGVPGVGVPGAGVPGVGVPGVGVPGVGVPGVGVPGAGVPGVGVPGVGVPGVGVPGVGVPGAGVPGVGVPGVGVPGAYPIPDSSPLLQFGGQVRQRYLYTDDDQDTEAHLEIREDGTVVGAAHRSPESLLELKALKPGVIQILGVKASRFLCQQPDGALYGSPHFDPEACSFRERLLEDGYNVYQSEAHGLPLRLPQKDSPNQDATSWGPVRFLPMPGLLHEPQDQAGFLPPEPPDVGSSDPLSMVEGSQGRSPSYASG
[1]
  FGF21 receptor EC50, ERK1/2 phosphorylation (phospho-ERK1/2 normalized to total ERK1/2) in HEK293 cells expressing FGFR1 and β-Klotho: 18800 pM
  fold increase of FGF21 receptor EC50 against native mouse FGF21, ERK1/2 phosphorylation assay: ~20 fold
